Values of other authors, collected in paper PMC4771075.

Molecular target: kappa opioid receptor (Rattus norvegicus) (UniProt P34975)
Assay: radioligand

Sequence of kappa opioid receptor (Rattus norvegicus) (P34975 whole entry): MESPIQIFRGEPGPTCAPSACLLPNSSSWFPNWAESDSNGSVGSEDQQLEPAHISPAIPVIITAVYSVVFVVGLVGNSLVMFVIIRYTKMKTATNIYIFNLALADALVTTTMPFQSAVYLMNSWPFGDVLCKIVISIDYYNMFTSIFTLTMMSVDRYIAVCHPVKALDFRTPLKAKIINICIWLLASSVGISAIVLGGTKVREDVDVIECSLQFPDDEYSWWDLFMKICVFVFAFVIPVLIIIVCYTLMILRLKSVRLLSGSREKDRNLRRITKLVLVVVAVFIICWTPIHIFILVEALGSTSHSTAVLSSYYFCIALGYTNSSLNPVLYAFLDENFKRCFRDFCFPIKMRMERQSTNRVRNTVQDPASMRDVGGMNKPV

Ki: 0.57 nM
Substance: Dyn A(1-11)NH2 1-11 (from UniProt P01213)
